Test results taken from patent publication US20220048967A1 (published 2022).
Substitutions are numbered along the chain they refer to. Numbered stars: 1 amine (or outer) side, 2 acyl side, 3 side chain; on linkers, the order of the positions; unused ones are H or OH. Square brackets hold non-standard residues; d marks the D form. Side chains are listed from the residue outwards. Ends that are not written are not given here. * marks the point of attachment. C20 diacid = O=C(O)CCCCCCCCCCCCCCCCCCC(=O)*; γGlu = O=C(O)[C@H](CCC(=O)[*:2])N[*:1]; AEEA = NCCOCCOCC(=O)O; Aib = CC(C)(N)C(=O)O

T1: human GIP receptor (human, UniProt P48546 22-466)
T1 sequence (looked up): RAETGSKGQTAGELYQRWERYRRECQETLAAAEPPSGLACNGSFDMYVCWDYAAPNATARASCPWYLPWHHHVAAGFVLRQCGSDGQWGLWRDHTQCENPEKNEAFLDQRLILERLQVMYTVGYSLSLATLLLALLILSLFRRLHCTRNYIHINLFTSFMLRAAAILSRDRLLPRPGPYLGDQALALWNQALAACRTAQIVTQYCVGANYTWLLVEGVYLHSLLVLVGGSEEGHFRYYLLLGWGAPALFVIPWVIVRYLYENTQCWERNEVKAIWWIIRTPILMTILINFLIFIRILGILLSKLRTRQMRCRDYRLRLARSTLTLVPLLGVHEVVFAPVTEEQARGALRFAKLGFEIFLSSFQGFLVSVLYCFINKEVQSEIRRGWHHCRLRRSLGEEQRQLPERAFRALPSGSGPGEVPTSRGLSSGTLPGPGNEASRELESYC

B1: Example 48 (peptide)
peptide: Y[Aib]EGTFTSDYSILLDKIAQ[Aib]AFIEYLIEGGPSSGAPPPK([AEEA-AEEA-γGlu-C20 diacid])-NH2
modifications: N-terminus assumed
SMILES: CC[C@H](C)[C@H](NC(=O)[C@H](CCCCN)NC(=O)[C@H](CC(=O)O)NC(=O)[C@H](CC(C)C)NC(=O)[C@H](CC(C)C)NC(=O)[C@@H](NC(=O)[C@H](CO)NC(=O)[C@H](Cc1ccc(O)cc1)NC(=O)[C@H](CC(=O)O)NC(=O)[C@H](CO)NC(=O)[C@@H](NC(=O)[C@H](Cc1ccccc1)NC(=O)[C@@H](NC(=O)CNC(=O)[C@H](CCC(=O)O)NC(=O)C(C)(C)NC(=O)[C@@H](N)Cc1ccc(O)cc1)[C@@H](C)O)[C@@H](C)O)[C@@H](C)CC)C(=O)N[C@@H](C)C(=O)N[C@@H](CCC(N)=O)C(=O)NC(C)(C)C(=O)N[C@@H](C)C(=O)N[C@@H](Cc1ccccc1)C(=O)N[C@H](C(=O)N[C@@H](CCC(=O)O)C(=O)N[C@@H](Cc1ccc(O)cc1)C(=O)N[C@@H](CC(C)C)C(=O)N[C@H](C(=O)N[C@@H](CCC(=O)O)C(=O)NCC(=O)NCC(=O)N1CCC[C@H]1C(=O)N[C@@H](CO)C(=O)N[C@@H](CO)C(=O)NCC(=O)N[C@@H](C)C(=O)N1CCC[C@H]1C(=O)N1CCC[C@H]1C(=O)N1CCC[C@H]1C(=O)N[C@@H](CCCCNC(=O)COCCOCCNC(=O)COCCOCCNC(=O)CC[C@H](NC(=O)CCCCCCCCCCCCCCCCCCC(=O)O)C(=O)O)C(N)=O)[C@@H](C)CC)[C@@H](C)CC
B2: Example 49 (peptide)
peptide: Y[Aib]EGTFTSDYSILLDKIAQ[Aib]AFIEYLIEGGPSSGAPPPSK([AEEA-AEEA-γGlu-C20 diacid])-NH2
modifications: N-terminus assumed
SMILES: CC[C@H](C)[C@H](NC(=O)[C@H](CCCCN)NC(=O)[C@H](CC(=O)O)NC(=O)[C@H](CC(C)C)NC(=O)[C@H](CC(C)C)NC(=O)[C@@H](NC(=O)[C@H](CO)NC(=O)[C@H](Cc1ccc(O)cc1)NC(=O)[C@H](CC(=O)O)NC(=O)[C@H](CO)NC(=O)[C@@H](NC(=O)[C@H](Cc1ccccc1)NC(=O)[C@@H](NC(=O)CNC(=O)[C@H](CCC(=O)O)NC(=O)C(C)(C)NC(=O)[C@@H](N)Cc1ccc(O)cc1)[C@@H](C)O)[C@@H](C)O)[C@@H](C)CC)C(=O)N[C@@H](C)C(=O)N[C@@H](CCC(N)=O)C(=O)NC(C)(C)C(=O)N[C@@H](C)C(=O)N[C@@H](Cc1ccccc1)C(=O)N[C@H](C(=O)N[C@@H](CCC(=O)O)C(=O)N[C@@H](Cc1ccc(O)cc1)C(=O)N[C@@H](CC(C)C)C(=O)N[C@H](C(=O)N[C@@H](CCC(=O)O)C(=O)NCC(=O)NCC(=O)N1CCC[C@H]1C(=O)N[C@@H](CO)C(=O)N[C@@H](CO)C(=O)NCC(=O)N[C@@H](C)C(=O)N1CCC[C@H]1C(=O)N1CCC[C@H]1C(=O)N1CCC[C@H]1C(=O)N[C@@H](CO)C(=O)N[C@@H](CCCCNC(=O)COCCOCCNC(=O)COCCOCCNC(=O)CC[C@H](NC(=O)CCCCCCCCCCCCCCCCCCC(=O)O)C(=O)O)C(N)=O)[C@@H](C)CC)[C@@H](C)CC
B3: Example 57 (peptide)
peptide: YXEGTXTSDYSILLDKKAQXAFIEYLIEGGPSSGAPPPS
modifications: Aib2; αMeF6; K17((2-[2-(2-Amino-ethoxy)-ethoxy]-acetyl)2-(γ-Glu)-CO-(CH2)18-CO2H); Aib20; C-terminal NH2
B4: Example 68 (peptide)
peptide: B3 peptide with X6F, S11X
modifications: Aib2; αMeS11; K17((2-[2-(2-Amino-ethoxy)-ethoxy]-acetyl)2-(γ-Glu)-CO-(CH2)18-CO2H); Aib20; C-terminal NH2
B5: Example 66 (peptide)
peptide: B3 peptide with X6F, L13X, K16E, I27L
modifications: not fully specified; Aib2; αMeF13 as printed (likely αMeL13); K17((2-[2-(2-Amino-ethoxy)-ethoxy]-acetyl)2-(γ-Glu)-CO-(CH2)18-CO2H); Aib20; C-terminal NH2
B6: Example 69 (peptide)
peptide: B3 peptide with L13X
modifications: not fully specified; Aib2; αMeF6; αMeF13 as printed (likely αMeL13); K17((2-[2-(2-Amino-ethoxy)-ethoxy]-acetyl)2-(γ-Glu)-CO-(CH2)18-CO2H); Aib20; C-terminal NH2
B7: Example 67 (peptide)
peptide: B3 peptide with X6F, F22X
modifications: Aib2; K17((2-[2-(2-Amino-ethoxy)-ethoxy]-acetyl)2-(γ-Glu)-CO-(CH2)18-CO2H); Aib20; αMeF22; C-terminal NH2
B8: Example 51 (peptide)
peptide: Y[Aib]EGTFTSDYSILLDKK([AEEA-AEEA-γGlu-C20 diacid])AQ[Aib]AFIEYLIEGG-NH2
modifications: N-terminus assumed
SMILES: CC[C@H](C)[C@H](NC(=O)[C@H](CC(C)C)NC(=O)[C@H](Cc1ccc(O)cc1)NC(=O)[C@H](CCC(=O)O)NC(=O)[C@@H](NC(=O)[C@H](Cc1ccccc1)NC(=O)[C@H](C)NC(=O)C(C)(C)NC(=O)[C@H](CCC(N)=O)NC(=O)[C@H](C)NC(=O)[C@H](CCCCNC(=O)COCCOCCNC(=O)COCCOCCNC(=O)CC[C@H](NC(=O)CCCCCCCCCCCCCCCCCCC(=O)O)C(=O)O)NC(=O)[C@H](CCCCN)NC(=O)[C@H](CC(=O)O)NC(=O)[C@H](CC(C)C)NC(=O)[C@H](CC(C)C)NC(=O)[C@@H](NC(=O)[C@H](CO)NC(=O)[C@H](Cc1ccc(O)cc1)NC(=O)[C@H](CC(=O)O)NC(=O)[C@H](CO)NC(=O)[C@@H](NC(=O)[C@H](Cc1ccccc1)NC(=O)[C@@H](NC(=O)CNC(=O)[C@H](CCC(=O)O)NC(=O)C(C)(C)NC(=O)[C@@H](N)Cc1ccc(O)cc1)[C@@H](C)O)[C@@H](C)O)[C@@H](C)CC)[C@@H](C)CC)C(=O)N[C@@H](CCC(=O)O)C(=O)NCC(=O)NCC(N)=O
B9: Example 50 (peptide)
peptide: Y[Aib]EGTFTSDYSILLDKK([AEEA-AEEA-γGlu-C20 diacid])AQ[Aib]AFIEYLIEGGPSSG-NH2
modifications: N-terminus assumed
SMILES: CC[C@H](C)[C@H](NC(=O)[C@H](CC(C)C)NC(=O)[C@H](Cc1ccc(O)cc1)NC(=O)[C@H](CCC(=O)O)NC(=O)[C@@H](NC(=O)[C@H](Cc1ccccc1)NC(=O)[C@H](C)NC(=O)C(C)(C)NC(=O)[C@H](CCC(N)=O)NC(=O)[C@H](C)NC(=O)[C@H](CCCCNC(=O)COCCOCCNC(=O)COCCOCCNC(=O)CC[C@H](NC(=O)CCCCCCCCCCCCCCCCCCC(=O)O)C(=O)O)NC(=O)[C@H](CCCCN)NC(=O)[C@H](CC(=O)O)NC(=O)[C@H](CC(C)C)NC(=O)[C@H](CC(C)C)NC(=O)[C@@H](NC(=O)[C@H](CO)NC(=O)[C@H](Cc1ccc(O)cc1)NC(=O)[C@H](CC(=O)O)NC(=O)[C@H](CO)NC(=O)[C@@H](NC(=O)[C@H](Cc1ccccc1)NC(=O)[C@@H](NC(=O)CNC(=O)[C@H](CCC(=O)O)NC(=O)C(C)(C)NC(=O)[C@@H](N)Cc1ccc(O)cc1)[C@@H](C)O)[C@@H](C)O)[C@@H](C)CC)[C@@H](C)CC)C(=O)N[C@@H](CCC(=O)O)C(=O)NCC(=O)NCC(=O)N1CCC[C@H]1C(=O)N[C@@H](CO)C(=O)N[C@@H](CO)C(=O)NCC(N)=O
B10: Example 58 (peptide)
peptide: Y[Aib]EGTFTSDYSSLLDKK([AEEA-AEEA-γGlu-C20 diacid])AQ[Aib]AFIEYLIEGGPSSGAPPPS-NH2
modifications: N-terminus assumed
SMILES: CC[C@H](C)[C@H](NC(=O)[C@H](CC(C)C)NC(=O)[C@H](Cc1ccc(O)cc1)NC(=O)[C@H](CCC(=O)O)NC(=O)[C@@H](NC(=O)[C@H](Cc1ccccc1)NC(=O)[C@H](C)NC(=O)C(C)(C)NC(=O)[C@H](CCC(N)=O)NC(=O)[C@H](C)NC(=O)[C@H](CCCCNC(=O)COCCOCCNC(=O)COCCOCCNC(=O)CC[C@H](NC(=O)CCCCCCCCCCCCCCCCCCC(=O)O)C(=O)O)NC(=O)[C@H](CCCCN)NC(=O)[C@H](CC(=O)O)NC(=O)[C@H](CC(C)C)NC(=O)[C@H](CC(C)C)NC(=O)[C@H](CO)NC(=O)[C@H](CO)NC(=O)[C@H](Cc1ccc(O)cc1)NC(=O)[C@H](CC(=O)O)NC(=O)[C@H](CO)NC(=O)[C@@H](NC(=O)[C@H](Cc1ccccc1)NC(=O)[C@@H](NC(=O)CNC(=O)[C@H](CCC(=O)O)NC(=O)C(C)(C)NC(=O)[C@@H](N)Cc1ccc(O)cc1)[C@@H](C)O)[C@@H](C)O)[C@@H](C)CC)C(=O)N[C@@H](CCC(=O)O)C(=O)NCC(=O)NCC(=O)N1CCC[C@H]1C(=O)N[C@@H](CO)C(=O)N[C@@H](CO)C(=O)NCC(=O)N[C@@H](C)C(=O)N1CCC[C@H]1C(=O)N1CCC[C@H]1C(=O)N1CCC[C@H]1C(=O)N[C@@H](CO)C(N)=O

Biological target: T1, human GIP receptor
Test: cell-based or functional assay

Binder	hGIPR cAMP EC50 ratio	hGIPR cAMP Rel EC50 [nM]
B1	0.863	0.168
B2	1.69	0.0868
B3	1.74	0.0849
B4	1.67	0.0881
B5	1.89	0.0743
B6	2.73	0.0712
B7	1.61	0.0913
B8	1.69	0.096
B9	1.96	0.0794
B10	0.522	0.266

Biological target: human GLP-1 receptor (human, UniProt P43220 24-463)
Test: cell-based or functional assay

Binder	hGLP1R cAMP EC50 ratio	hGLP1R cAMP Rel EC50 [nM]
B1	0.0966	0.691
B2	0.112	0.597
B3	0.996	0.0668
B4	0.354	0.153
B5	0.255	0.285
B6	0.85	0.0844
B7	0.123	0.447
B8	0.426	0.153
B9	0.675	0.0961
B10	0.378	0.18
